Experimental data published in publication PMC6019379, “RecA-like domain 2 of DNA-dependent ATPase A domain, a SWI2/SNF2 protein, mediates conformational integrity and ATP hydrolysis” (Bioscience Reports, 2018).
Substitutions are numbered along the chain they refer to.

Columns and labels:
Experiment in all cases: intrinsic tryptophan fluorescence titration; no ATP; Fluorescence titration (ex 295 nm, em 340 nm), one-site saturation fit; buffer, salt, pH and temperature not given in the material. Wild-type ADAAD Kd values are cited from ref 24 and not listed
Settings in all cases: protein: recombinant; tags: His (Ni-NTA, pET-14b); hairpin
ADAAD R595H = biological target: T1, ADAAD R595H (Bos taurus (bovine), UniProt Q9TTA5 221-940, R815H)
T1 sequence: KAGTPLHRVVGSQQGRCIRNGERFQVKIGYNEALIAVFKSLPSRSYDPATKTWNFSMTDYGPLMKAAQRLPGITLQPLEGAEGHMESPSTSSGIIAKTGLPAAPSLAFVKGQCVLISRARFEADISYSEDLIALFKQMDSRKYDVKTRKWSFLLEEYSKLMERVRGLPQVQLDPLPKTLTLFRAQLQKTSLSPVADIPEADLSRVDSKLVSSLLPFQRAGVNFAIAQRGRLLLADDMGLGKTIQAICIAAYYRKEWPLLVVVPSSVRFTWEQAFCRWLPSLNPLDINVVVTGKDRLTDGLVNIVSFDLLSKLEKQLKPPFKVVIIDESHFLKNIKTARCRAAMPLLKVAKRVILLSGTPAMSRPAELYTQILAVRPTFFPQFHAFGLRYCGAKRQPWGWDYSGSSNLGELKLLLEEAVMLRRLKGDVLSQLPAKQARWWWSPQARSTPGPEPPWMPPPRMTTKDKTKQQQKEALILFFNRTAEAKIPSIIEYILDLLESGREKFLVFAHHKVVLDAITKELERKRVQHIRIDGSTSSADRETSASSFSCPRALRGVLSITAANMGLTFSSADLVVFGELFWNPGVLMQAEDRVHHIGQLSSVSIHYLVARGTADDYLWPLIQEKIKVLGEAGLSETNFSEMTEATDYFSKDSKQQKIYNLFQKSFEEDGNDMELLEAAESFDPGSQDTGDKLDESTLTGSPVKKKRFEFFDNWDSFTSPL

ADAAD H594A = biological target: T2, ADAAD H594A (Bos taurus (bovine), UniProt Q9TTA5 221-940, H814A)
T2 sequence: T1 sequence with H594A, H595R

ADAAD F507W = biological target: T3, ADAAD F507W (Bos taurus (bovine), UniProt Q9TTA5 221-940, F727W)
T3 sequence: T1 sequence with F507W, H595R

GCGCAATTGCGCTCGACGATTTTTTAGCGCAATTGCGC (structured_DNA) [slDNA (stem-loop DNA)]
Kd (ADAAD R595H): 24.3 ± 6.1 nM | Kd (ADAAD H594A): 10.9 ± 2.6 nM | Kd (ADAAD F507W): 44.8 ± 9 nM
